We go through 30 molecules from patent US20230295310A1 (ABCELLERA BIOLOGICS, published 2023).

One test has as its target T1, human CD3e/d (human, UniProt P07766 23-126; P04234 22-105).
T1 construct: Bought soluble protein; also called hCD3e/d; human CD3/ed (Sino CT038-H2508H)
The experiment in a line: SPR (Carterra LSA), mAb on chip. In short, it runs like this:
(§1)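 Purified mAbs amine-coupled (EDC/S-NHS) at 10 μg/mL in 10 mM NaOAc pH 4.25 onto an HC-30M chip, with benchmark and negative-control mAbs; analyte flowed over the array. Double-referenced sensorgrams fitted globally to a 1:1 Langmuir model for ka, kd and KD.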

For the next test, the target named is T2, human CD3e/g (human, UniProt P07766 23-126; P09693 23-116).
T2 construct: Bought soluble protein; also called hCD3e/g; human CD3e/g (Acro CDD-C52W4)
The experiment in a line: SPR (Carterra LSA), mAb on chip. Put shortly: as §1

Numbering of substitutions follows the chain as printed.

T1 sequence (P07766 23-126, chain 1 of 2): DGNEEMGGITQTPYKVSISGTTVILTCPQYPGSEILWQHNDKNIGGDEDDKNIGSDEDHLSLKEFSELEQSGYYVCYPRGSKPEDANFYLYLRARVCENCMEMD
T1 sequence (P04234 22-105, chain 2 of 2): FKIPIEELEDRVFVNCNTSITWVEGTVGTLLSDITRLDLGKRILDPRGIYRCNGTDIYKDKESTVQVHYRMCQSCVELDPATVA
T2 sequence (P07766 23-126, chain 1 of 2): as the sequence (P07766 23-126, chain 1 of 2) above
T2 sequence (P09693 23-116, chain 2 of 2): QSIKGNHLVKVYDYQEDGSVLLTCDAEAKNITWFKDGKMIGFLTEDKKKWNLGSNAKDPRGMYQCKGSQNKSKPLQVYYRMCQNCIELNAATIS

B1: mAb 137 (antibody, V domains shown)
VH: QVQLVESGGGVVQPGRSLRLSCAASGFTFSTYGMHWVRQAPGKGLEWVAVIWYDGSHKYYADSVKGRFTISRDNSKKTLYLQMNSLRAEDTGIYYCARTGISGNMSYFYFDHWGQGILVTVSS
VL: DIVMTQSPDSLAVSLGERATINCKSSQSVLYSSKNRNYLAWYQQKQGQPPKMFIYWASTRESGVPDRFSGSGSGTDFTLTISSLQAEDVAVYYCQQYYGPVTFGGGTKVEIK
notes: VH and VL only
Turning to B1, the Kd was found to be 181 nM with human CD3e/d and 950 nM in the test with human CD3e/g.

B2: mAb 52 (antibody, V domains shown)
VH: QVQLVQSGAEVKKPGASVKVSCKASGYTFTSHDINWVRQATGQGLEWMGWLNPNSGKTGYAQKFQGRVTMARDTSMYTADMELSSLRFEDTAVYYCARVGHYDMWPGFFSFDYWGQGTLVTVSS
VL: DIQMTQSPSSLSASVGDRIIITCRASQDIRNDLGWYQQKPGKAPKRLIYAASSLQSGVPSRFSGSRSGTEFTLTISSLHPEDFATYYCLQHRSYPYTFGQGTNLEIK
notes: VH and VL only
Consider B2, for which the dissociation constant Kd amounted to 17.1 nM with human CD3e/d and 112 nM in the test with human CD3e/g.

B3: mAb 54 (antibody, V domains shown)
VH: EVQLEESGGGLVQPGGSLRLSCAASGFTFSRYSMNWVRQAPGKGLEWFSYISSSSRTIYYADSVKGRFTMSRDNAKNSLYLQMNSLRDEDTAVYFCARGDYYDSEGMDVWGKGTTVTVSS
VL: DIQMTQSPSTLSASVGDRVTITCRASQTITTWLAWYQQKPGKAPKLLIYKASTLESGVPSRFSGSGSGTEFTLTISSLQPDDFATYHCQQYKTFSYTFGQGTKLDIK
notes: VH and VL only
Take B3: the figures for the Kd with human CD3e/d and with human CD3e/g were 553 nM and 83.2 nM, respectively.

B4: mAb 141 (antibody, V domains shown)
VH: QVQLVQSGAEVKKPGASVKVSCKASGYTFTSYYIHWVRQAPGQGLDWMGIINPSGGITGYAQKLQGRVTMTRDTSTTTVYMELSSLRSDDTAVYYCARGVRGNYYYYYMDVWGKGTTVTVSS
VL: EIVLTQSPDFQSVTPKEKVTITCRASQSIGSKLHWYQQKPDQSPKLLIKYASQSFSGVPSRFSGSGSGTDFNLTINSLEAEDAATFYCHQSSGLPYTFGQGTKLEIK
notes: VH and VL only
Regarding B4, the Kd with human CD3e/d was found to be 92.1 nM; with human CD3e/g, 26 nM.

B5: mAb 145 (antibody, V domains shown)
VH: B4 VH with S31N, L64F
VL: B4 VL with Y50F, A80P
notes: VH and VL only
On to B5, for which the figures for the Kd with human CD3e/d and in the test with human CD3e/g were 61 nM and 13.1 nM, respectively.

B6: mAb 206 (antibody, V domains shown)
VH: QVQLVESGGGVVQPGRSLRLSCAASGFTFSGYGMHWVRQAPGKGLEWVAIIYYNGNNRKYADSVKGRFTISRDNSKNTVSLQMNSLRVEDTAIYYCTRGDGYNWFVTWGQGTLVTVSS
VL: EIVMTQSPATLSVSPGERATLSCRASQSVSSNLAWYHQKPGQAPRLLIYGASTRATGIPVRFSGSGSGTEFTLTISSLQSEDFAVYYCQQYNNWPLTFGGGTKVEIK
notes: VH and VL only
As to B6, the dissociation constant Kd with human CD3e/d is 73 nM; with human CD3e/g it was 33 nM.

B7: mAb 194 (antibody, V domains shown)
VH: QEQLVESGGGVVQPGGSLRLSCAASGFIFSGYGMHWVRQAPGKGLEWVAIIWYNGRKTYYAESVKGRFTISRDNSKNTLSLQMNSLRVEDTAVYYCTAGQGYNWFDPWGQGTLVTVSS
VL: B6 VL with H37Q, V60A, Y91F, N93A, V104M
notes: VH and VL only
Consider B7, for which the Kd with human CD3e/d came out at 19 nM; with human CD3e/g, 12 nM.

B8: mAb 226 (antibody, V domains shown)
VH: B6 VH
VL: B6 VL with V29I, V85L
notes: VH and VL only
As to B8, the equilibrium dissociation constant (Kd) with human CD3e/d was 75 nM; with human CD3e/g, 32 nM.

B9: mAb 218 (antibody, V domains shown)
VH: B6 VH with K65R
VL: B6 VL with H37Y
notes: VH and VL only
In the case of B9, the Kd with human CD3e/d was determined as 62 nM; with human CD3e/g it was 34 nM.

B10: mAb 193 (antibody, V domains shown)
VH: B6 VH
VL: B6 VL with E81D
notes: VH and VL only
Take B10: the Kd in the test with human CD3e/d worked out at 93 nM; with human CD3e/g it was 29 nM.

B11: mAb 215 (antibody, V domains shown)
VH: B6 VH with S25T
VL: B6 VL with H37R
notes: VH and VL only
Take B11: the Kd in the test with human CD3e/d was 76 nM; with human CD3e/g, 34 nM.

B12: mAb 210 (antibody, V domains shown)
VH: B6 VH with V48L, I93M
VL: B6 VL with T20A, S30T, I106N
notes: VH and VL only
B12: the figures for the Kd with human CD3e/d and with human CD3e/g were 120 nM and 59 nM, respectively.

B13: mAb 188 (antibody, V domains shown)
VH: QVQLVESGGGVVQPGRSLRLSCAASGFTFSGYGMHWVRQAPGKGLEWVAIIYYNGKKEYYADSVKGRFTISRDNSKNTLYLQMNSLRAEDTAVYYCTRGEGYNWFDPWGQGTLVTVSS
VL: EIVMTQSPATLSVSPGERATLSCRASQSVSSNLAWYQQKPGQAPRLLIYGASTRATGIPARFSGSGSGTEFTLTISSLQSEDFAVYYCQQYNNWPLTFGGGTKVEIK
notes: VH and VL only
For the molecule B13, the Kd with human CD3e/d was found to be 36 nM; in the test with human CD3e/g, 17 nM.

B14: mAb 195 (antibody, V domains shown)
VH: B13 VH with V2E, P14S, A23V, T28K, N54D, K57N, E58K, E100A, P107S
VL: B6 VL with S30R, S31N, H37Q, A51V, G57A, I58F, V60A
notes: VH and VL only
With B14, the Kd in the test with human CD3e/d turned out to be 11 nM; with human CD3e/g it was 7.1 nM.

B15: mAb 192 (antibody, V domains shown)
VH: B13 VH with T112I
VL: B6 VL with H37Q, V60A, Q89K, N92K
notes: VH and VL only
As to B15, the Kd with human CD3e/d amounted to 9.2 nM; with human CD3e/g, 9.3 nM.

B16: mAb 198 (antibody, V domains shown)
VH: B7 VH with E2V, I28T, V88I, A98T
VL: B6 VL with H37Q, V60A, Y91F, N93A, V104M
notes: VH and VL only
For the molecule B16, the Kd with human CD3e/d came to 41 nM; with human CD3e/g it was 30 nM.

B17: mAb 217 (antibody, V domains shown)
VH: B13 VH with S71F, L79V, N84K
VL: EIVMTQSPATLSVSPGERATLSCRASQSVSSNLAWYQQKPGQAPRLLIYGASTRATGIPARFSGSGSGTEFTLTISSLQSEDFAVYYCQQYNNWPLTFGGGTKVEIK
notes: VH and VL only
For the molecule B17, the Kd with human CD3e/d amounted to 38 nM; with human CD3e/g it was 17 nM.

B18: mAb 205 (antibody, V domains shown)
VH: B13 VH with R16K
VL: B6 VL with H37Q, V60A, Q89K
notes: VH and VL only
Consider B18, for which the Kd was found to be 13 nM with human CD3e/d and 8.4 nM in the test with human CD3e/g.

B19: mAb 204 (antibody, V domains shown)
VH: B13 VH with P14S, I51V, N54D, K57N, E58K, T97V
VL: B6 VL with H37Q, A43V, V60A, E70Q
notes: VH and VL only
As to B19, the values for the Kd with human CD3e/d and with human CD3e/g were 200 nM and 90 nM, respectively.

B20: mAb 209 (antibody, V domains shown)
VH: B13 VH with I70V, T78M
VL: B6 VL with S28T, H37Q, V60A, Q89K, W94R
notes: VH and VL only
For B20, the values for the Kd with human CD3e/d and with human CD3e/g were 5.5 nM and 5.7 nM, respectively.

B21: mAb 197 (antibody, V domains shown)
VH: B7 VH with E2V, I28T, A98T
VL: B6 VL with H37Q, V60A, Y91F, N93A, V104M
notes: VH and VL only
As for B21, the Kd came to 49 nM with human CD3e/d and 17 nM with human CD3e/g.

B22: mAb 216 (antibody, V domains shown)
VH: B13 VH
VL: B6 VL with H37Q, V60A, Q89K, N92K
notes: VH and VL only
Regarding B22, the dissociation constant (Kd) with human CD3e/d turned out to be 9.3 nM; with human CD3e/g it was 6.8 nM.

B23: mAb 203 (antibody, V domains shown)
VH: B7 VH with E2V, I28T, S30R, W52Y
VL: B6 VL with H37Q, V60A, Y91F, N93A, V104M
notes: VH and VL only
For the molecule B23, the Kd worked out at 17 nM in the test with human CD3e/d and 9.5 nM in the test with human CD3e/g.

B24: mAb 222 (antibody, V domains shown)
VH: B13 VH with L79V
VL: B6 VL with E1K, H37Q, V60A, Q89K
notes: VH and VL only
Regarding B24, the Kd in the test with human CD3e/d was found to be 16 nM; in the test with human CD3e/g, 8.2 nM.

B25: mAb 221 (antibody, V domains shown)
VH: B7 VH with E2V, I28T
VL: B6 VL with H37Q, V60A, Y91F, N93A, V104M
notes: VH and VL only
With B25, the figures for the Kd with human CD3e/d and in the test with human CD3e/g were 38 nM and 25 nM, respectively.

B26: mAb 191 (antibody, V domains shown)
VH: B13 VH
VL: B6 VL with H37Q, V60A, E70D, D82H, N92T
notes: VH and VL only
Consider B26, for which the results for the Kd with human CD3e/d and in the test with human CD3e/g were 28 nM and 15 nM, respectively.

B27: mAb 199 (antibody, V domains shown)
VH: B13 VH with S71F, Q82H
VL: B6 VL with S31R, H37Q, V60A
notes: VH and VL only
B27: the results for the Kd in the test with human CD3e/d and in the test with human CD3e/g were 26 nM and 29 nM, respectively.

B28: mAb 189 (antibody, V domains shown)
VH: B13 VH with N54D, K57N, E58K, N77S, R87G, E89D, E100K
VL: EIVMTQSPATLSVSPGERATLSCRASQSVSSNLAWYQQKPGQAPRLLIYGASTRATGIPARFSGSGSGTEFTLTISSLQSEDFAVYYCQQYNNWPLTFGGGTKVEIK
notes: VH and VL only
Regarding B28, the Kd in the test with human CD3e/d is 110 nM; in the test with human CD3e/g, 60 nM.

B29: mAb 201 (antibody, V domains shown)
VH: B13 VH
VL: B6 VL with N32S, H37Q, V60A
notes: VH and VL only
As for B29, the figures for the Kd in the test with human CD3e/d and with human CD3e/g were 28 nM and 13 nM, respectively.

B30: mAb 224 (antibody, V domains shown)
VH: B13 VH with T78M, S85G, V93I
VL: B6 VL with A19T, S31N, H37Q, V60A
notes: VH and VL only
B30: the Kd with human CD3e/d is 39 nM; with human CD3e/g, 18 nM.
